Experimental data: US20160304610A1 (JOUNCE THERAPEUTICS, published 2016)

Molecular target: T1, mouse ICOS, full length, on cells (mouse, UniProt Q9WVS0 21-200)
T1 construct: also called CHO-mICOS; mouse ICOS+ CHO cells
T1 sequence: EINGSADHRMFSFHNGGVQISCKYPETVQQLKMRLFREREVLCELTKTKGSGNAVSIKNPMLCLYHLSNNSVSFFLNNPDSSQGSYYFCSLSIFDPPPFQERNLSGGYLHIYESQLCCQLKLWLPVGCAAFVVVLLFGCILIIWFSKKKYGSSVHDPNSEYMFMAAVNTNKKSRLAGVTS
Assay: receptor availability assay, flow cytometry on mouse blood T cells after 2.5 mg/kg i.p.
Protocol: ICOS target engagement may also be assessed as measured by receptor availability assay, for example, as follows. Naive mice were i.p. injected with either the isotype control mIgG2a at 2.5 mg/kg or […] with a mouse IgG2a at 2.5 mg/kg. At various time-points post-injection, blood was collected in EDTA coated microtubes via submandibular draw.
Whole blood was Fc blocked using mouse TruStain (BioLegend) for 5 minutes on ice. Following incubation, 100 μl of 2× concentrated extracellular staining antibody mixture was added to each sample for 30 minutes at 4° C. Samples were spun down and fixed and permeabilized in Foxp3 staining buffer (eBioSciences) for 30 minutes at 4° C. Samples were then spun down and resuspended in intracellular antibody stain for 30 minutes at 4° C. Samples were spun down and resuspended in 0.1% PFA. Samples were analyzed on a BD LSRII Fortessa. Tregs were identified as live CD45+ CD3+ CD4+ FoxP3+. Teff cells were identified as live CD45+ CD3+ CD4+ FoxP3−. CD8+ cells were identified as live CD45+ CD3+ CD8+. Fluorescently labeled 37A10S713-mG2a (DyLight 650 conjugated) was used as the staining reagent for ICOS. Receptor availability at each time point was determined using the following formula: […]

binding result: binds
B1: 37A10S713-mG2a (antibody, V domains shown)
VH: EVQLVESGGGLVQPGGSLRLSCAASGFTFSDYWMDWVRQAPGKGLVWVSNIDEDGSITEYSPFVKGRFTISRDNAKNTLYLQMNSLRAEDTAVYYCTRWGRFGFDSWGQGTLVTVSS
VL: DIVMTQSPDSLAVSLGERATINCKSSQSLLSGSFNYLTWYQQKPGQPPKLLIFYASTRHTGVPDRFSGSGSGTDFTLTISSLQAEDVAVYYCHHHYNAPPTFGPGTKVDIK
notes: 37A10S713 VH and VL with a mouse IgG2a; also called 37A10S713 with a mouse IgG2a; 37A10S713-mIgG2a
